Results: patent US20120014911A1 (published 2012)

Biological target: T1, endogenous PKD1 from 293T cells (human, UniProt Q15139 1-912)
T1 construct: also called PKD1/PKCµ
T1 sequence (looked up): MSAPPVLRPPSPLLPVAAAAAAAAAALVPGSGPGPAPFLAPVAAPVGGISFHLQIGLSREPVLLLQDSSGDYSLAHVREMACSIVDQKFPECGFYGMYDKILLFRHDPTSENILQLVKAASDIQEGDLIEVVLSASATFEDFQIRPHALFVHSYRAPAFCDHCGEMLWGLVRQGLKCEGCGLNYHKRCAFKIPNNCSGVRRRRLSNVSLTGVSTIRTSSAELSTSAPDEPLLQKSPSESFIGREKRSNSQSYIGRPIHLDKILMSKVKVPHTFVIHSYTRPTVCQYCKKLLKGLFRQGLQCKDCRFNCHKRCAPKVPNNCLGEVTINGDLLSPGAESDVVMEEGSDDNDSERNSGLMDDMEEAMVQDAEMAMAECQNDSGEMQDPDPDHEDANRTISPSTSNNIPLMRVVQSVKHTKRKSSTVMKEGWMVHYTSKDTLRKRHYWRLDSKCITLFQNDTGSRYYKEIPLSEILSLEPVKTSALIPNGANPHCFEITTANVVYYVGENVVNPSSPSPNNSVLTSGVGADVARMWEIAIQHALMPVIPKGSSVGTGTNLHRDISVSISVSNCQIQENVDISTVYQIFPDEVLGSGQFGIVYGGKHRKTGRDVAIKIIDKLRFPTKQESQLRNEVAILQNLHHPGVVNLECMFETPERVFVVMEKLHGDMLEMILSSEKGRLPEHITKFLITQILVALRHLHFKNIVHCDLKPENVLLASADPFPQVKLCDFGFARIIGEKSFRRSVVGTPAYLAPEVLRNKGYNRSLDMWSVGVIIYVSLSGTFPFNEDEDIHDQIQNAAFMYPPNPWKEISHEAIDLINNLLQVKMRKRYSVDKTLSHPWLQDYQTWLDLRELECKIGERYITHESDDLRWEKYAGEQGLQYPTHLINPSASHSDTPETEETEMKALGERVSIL
Test: co-immunoprecipitation of endogenous proteins from 293T cell lysates, untreated or treated with IFN-α

B1: endogenous IFNAR1 from 293T cells (receptor, human, UniProt P17181 28-557, looked up)
chain: KNLKSPQKVEVDIIDDNFILRWNRSDESVGNVTFSFDYQKTGMDNWIKLSGCQNITSTKCNFSSLKLNVYEEIKLRIRAEKENTSSWYEVDSFTPFRKAQIGPPEVHLEAEDKAIVIHISPGTKDSVMWALDGLSFTYSLVIWKNSSGVEERIENIYSRHKIYKLSPETTYCLKVKAALLTSWKIGVYSPVHCIKTTVENELPPPENIEVSVQNQNYVLKWDYTYANMTFQVQWLHAFLKRNPGNHLYKWKQIPDCENVKTTQCVFPQNVFQKGIYLLRVQASDGNNTSFWSEEIKFDTEIQAFLLPPVFNIRSLSDSFHIYIGAPKQSGNTPVIQDYPLIYEIIFWENTSNAERKIIEKKTDVTVPNLKPLTVYCVKARAHTMDEKLNKSSVFSDAVCEKTKPGNTSKIWLIVGICIALFALPFVIYAAKVFLRCINYVFFPSLKPSSSIDEYFSEQPLKNLLLSTSEEQIEKCFIIENISTIATVEETNQTDEDHKKYSSQTSQDSGNYSNEDESESKTSEELQQDFV
notes: also called the receptor
binding result: no binding
